In article PMC10584687:

Key:
[1] = biological target: GluA2 (modified calcium-permeable rat GluA2(Q) flip subunit, GluA2*) (rat)
[2] = biological target: GluA2–γ5 fusion construct (N terminus of γ5 covalently linked to the C terminus of GluA2) (rat | mouse) (UniProt Q8VHW4)
[3] = biological target: GluA2 (modified calcium-permeable rat GluA2(Q) flip subunit, GluA2*) (rat); remark: listed apart in the source
[4] = biological target: GluA2–γ5 fusion construct (N terminus of γ5 covalently linked to the C terminus of GluA2) (rat | mouse) (UniProt Q8VHW4); remark: listed apart in the source
[5] = biological target: GluA2 (modified calcium-permeable rat GluA2(Q) flip subunit, GluA2*) (rat); remark: listed apart in the source
[6] = biological target: GluA2–γ5 fusion construct (N terminus of γ5 covalently linked to the C terminus of GluA2) (rat | mouse) (UniProt Q8VHW4); remark: listed apart in the source
[7] = biological target: GluA2–γ5 fusion construct (N terminus of γ5 covalently linked to the C terminus of GluA2) (rat | mouse) (UniProt Q8VHW4); assay: cryo-EM structure; complex co-purified from HEK293S GnTI− cells transduced with GluA2–γ5 (no antagonists in the medium) by the streptavidin affinity tag and SEC in 150 mM NaCl, 20 mM Tris pH 8.0, 0.005% CHS, 0.05% digitonin, 1 mM βME; grids with 100 µM ZK, no ligand (apo), 100 µM ZK + 100 µM PMP, or 10 mM Glu
[8] = biological target: GluA2 (modified calcium-permeable rat GluA2(Q) flip subunit, GluA2*) (rat); assay: as above

B1: cornichon-2 (CNIH2), endogenous human (natural protein)
chain: MAFTFAAFCYMLTLVLCASLIFFVIWHIIAFDELRTDFKNPIDQGNPARARERLKNIERICCLLRKLVVPEYSIHGLFCLMFLCAAEWVTLGLNIPLLFYHLWRYFHRPADGSEVMYDAVSIMNADILNYCQKESWCKLAFYLLSFFYYLYSMVYTLVSF
In the case of B1, the deactivation time constant τDeact, whole-cell patch clamp, HEK293 cells cotransfected with GluA2 and wild-type human CNIH2, 2 ms 3 mM Glu, −60 mV [1] is reported as 10.8 ms, the desensitization time constant τDes, whole-cell patch clamp, HEK293 cells cotransfected with GluA2 and wild-type human CNIH2, 500 ms 3 mM Glu, −60 mV [1] is reported as 28 ms and the deactivation time constant τDeact, whole-cell patch clamp, HEK293 cells cotransfected with GluA2–γ5 and wild-type human CNIH2, 2 ms 3 mM Glu, −60 mV [2] is reported as 4.21 ms. The desensitization time constant τDes, whole-cell patch clamp, HEK293 cells cotransfected with GluA2–γ5 and wild-type human CNIH2, 500 ms 3 mM Glu, −60 mV [2] was 14.8 ms, the fraction of nondesensitized channels ISS/IMax, whole-cell patch clamp, HEK293 cells cotransfected with GluA2 and wild-type human CNIH2 [3] was 0.211 and the fraction of nondesensitized channels ISS/IMax, whole-cell patch clamp, HEK293 cells cotransfected with GluA2–γ5 and wild-type human CNIH2 [4] was 0.06. It also gave a time constant of recovery from desensitization τRecDes, two-pulse protocol, HEK293 cells cotransfected with GluA2 and wild-type human CNIH2 [5] of 21.7 ms, a time constant of recovery from desensitization τRecDes, two-pulse protocol, HEK293 cells cotransfected with GluA2–γ5 and wild-type human CNIH2 [6] of 36.8 ms and a stoichiometry N (CNIH2 subunits per GluA2–γ5 tetramer) [7] of 2.

B2: TARP γ5 (C-terminally truncated mouse subunit, Cacng5, residues S2-E207) (domain or fragment)
chain: SACGRKALTLLSSVFAVCGLGLLGIAVSTDYWLYLEEGIILPQNQSTEVKMSLHSGLWRVCFLAGEERGRCFTIEYVMPMNSQMTSESTVNVLKMIRSATPFPLVSLFFMFIGFILSNIGHIRPHRTILAFVSGIFFILSGLSLVVGLVLYISSINDEMLNRTKDAETYFNYKYGWSFAFAAISFLLTESAGVMSVYLFMKRYTAE
Binder B2 has a stoichiometry N (γ5 subunits per AMPAR tetramer) [8] of 2.
